Laboratory results taken from the supplement of paper PMC9170038.

Test system: MS2 coat protein
Assay: apparent KD of MS2 coat protein; designed switch direction (-1 OFF switch, 1 ON switch): 1; higher = weaker reporter binding
How it was run: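 The buffer was Tris-HCl pH 7.5 with KCl, MgCl2, BSA, DTT, tRNA and Tween-20. In it, SNAP-549-labelled MS2 coat protein was titrated in doubling steps from 0.7 or 1.5 nM to 3 µM over chip-bound RNA switches transcribed by stalled E. coli RNA polymerase on Illumina chips. Apparent KD is the per-design median over clusters of curve fits to normalised fluorescence.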

[1] = input ligand: microRNA oligo, concentration not stated
[2] = Eterna round: R95, input ligand: FMN 200 uM
[3] = Eterna round: R95, input ligand: microRNA oligo, concentration not stated
[4] = Eterna round: R95, input ligand: none

| Sequence | apparent KD of MS2 coat protein (input ligand: FMN 200 uM) [nM] | apparent KD of MS2 coat protein [1] [nM] | apparent KD of MS2 coat protein (input ligand: none) [nM] | apparent KD of MS2 coat protein [2] [nM] | apparent KD of MS2 coat protein [3] [nM] | apparent KD of MS2 coat protein [4] [nM] |
| --- | --- | --- | --- | --- | --- | --- |
| AAGUUAAGCUUUUUGUUCUGCCUAUUCUGACAUGAGGAUCACCCAUGUGGUCGAACGACUACGUGUGUAGUUGAGAU [JR_SHM208A_Sub030] (Eterna round: R96, puzzle: Sensor for hsa-mir-208a) | 493 | 341 | 550 |  |  |  |
| AACAUGUGGUGUCACAUGAGGAUCACCCAUGUGGUAAAAGCUGAGGAUAUAAAGAGAAACAUGAAUUAGAAGGUAGGAUCACAA [AK SSNG3-V2-19] (Eterna round: R96, puzzle: Same State NG 3) | 177 | 138 | 127 |  |  |  |
| UUUACUUUCAUAGGAUAUCAUGCGAAAAUUGCGUGAGAAGGGUGCACACUGUCUUUCUAGGAGUACAUGAGGAUCACCCAUGUG [SameState NG1 #66] (Eterna round: R96, puzzle: Same State NG 1) | 52.4 | 48.3 | 50.9 |  |  |  |
| AAGUAACAUGAGGAUCACCCAUGUGAGGUGAGCGUAGGAUAUCGAGAAGGAAGGGUGGAGCGAGAAGGACGAAGGA [JR_SS1_Sub0102] (puzzle: Same State 1) |  |  |  | 349 | 192 | 501 |
| UUUAUAGGCGCAGGAUAUGGUGAGGAUCACCCACUAGAAGGGUGCACAUGAGAAUCGGACAUGAGGAUCACCCAUGUCCGGCGC (Eterna round: R96, puzzle: Same State NG 1) | 915 | 201 | 526 |  |  |  |
| GGAGCCGGCCUAGGAUAUUUCAUAAACAAACAUGAGGAUCACCCAUGUAGGCCAGAAGGCCUUGGGAAGAAGGAGGUCGGCUCC [Loop Effect - C27] (Eterna round: R96, puzzle: Same State NG 2) | 22.1 | 32.2 | 45.2 |  |  |  |
| AGCUAUUACGAAGGAUAUAGGGACAUGAGGAUCACCCAUGUGUACAUGAGUAAAUGUGAUCACGUCUAGAAGGUUGUACUAACA [SameState NG2 #36] (Eterna round: R96, puzzle: Same State NG 2) | 474 | 383 | 430 |  |  |  |
| GAAUAAAUGAUAGGAUAUACAUGAGGAAUUCUCGUAGAAGGAUCAUGACAUGAGGAUCACCCAUGUAACGCUCGAAAGAGCGUA [Mat - Same State NG 1 - JL mod - D41] (Eterna round: R96, puzzle: Same State NG 1) | 607 | 733 | 928 |  |  |  |
| GCGGAACCUGACAUGAGGAUCACCCAUGUUCCGGAAACGGCACAGGAUAUCUGUCCGAAAAGGUCAGAGAAGGGUGUAAACCGC [Fiskers NG3ss - 97] (Eterna round: R96, puzzle: Same State NG 3) | 29 | 325 | 210 |  |  |  |
| AUUAAUAAUCUAGGAUAUCACGUCGUUUAGACGUGAGAAGGAGAUCAUAACAUGAGGAUCACCCAUGUAUUACAUGAAGUUAAU [SSNG1/7-B3] (Eterna round: R96, puzzle: Same State NG 1) | 22.2 | 27.8 | 37.5 |  |  |  |
| UGAAUAGUCACAGGAUAUCAUGCGAAAAUUGCGUGAGAAGGGUGGGUGUUGUGCUCAAAGUGCUACAUGAGGAUCACCCAUGUU [SameState NG1 #41] (Eterna round: R96, puzzle: Same State NG 1) | 1540 | 638 | 1210 |  |  |  |
| GAGAAGAGGGACAAGGAUAUGUCAGGAGAGACAUGAGGAUCACCCAUGUAGAGGUUGGAGGAGAGACAGAAGGUGUCGGGAGCGA [JR_SS2_Sub013] (puzzle: Same State 2) |  |  |  | 86.8 | 73.7 | 109 |
| UUGAAGAAUUAAGGAUAUUGAAUACAUAUGUUUAACAUGAGGAUCACCCAUGUGGGUUGCGGUAUCGAGAAGGUAAAUUAAUAG [Mat - Same State NG 2 - JL mod - D9] (Eterna round: R96, puzzle: Same State NG 2) | 142 | 98.4 | 118 |  |  |  |
| AUUAUUAAUAUAGGAUAUGUAAAACAUGAGGAUCACCCAUGUGAUAUCGUGAGUAAGGAGAGAGAACAGAAGGAUAAUUUUUUU [JMF's solution 1] (Eterna round: R96, puzzle: Same State NG 2) | 38.1 | 30.9 | 41.3 |  |  |  |
| AACAAUCUAUCUUAGGAUAUCAUGAAAUAAACAUGAGGAUCACCCAUGUGCAGGAAAACUGCAUAUGAGAAGGCAGAUAGAUUGA [salish99_ss2_r3_026] (puzzle: Same State 2) |  |  |  | 593 | 36.2 | 42.2 |
| CCGAAAUAUGGAGGAUAUGGAGCCUUAUUGGCUCCAGAAGGUCAAAACAUGAGGAUCACCCAUGUAUCGGCGGUCAAUAGACCG [Eli NG1ss - 73] (Eterna round: R96, puzzle: Same State NG 1) | 123 | 81.7 | 171 |  |  |  |
| UGUGUCAUAGGUUUUUUAGCUCGUCUGAUACAUGAGGAUCACCCAUGUUAUAGCCCUGUGCUUGCGCAGGGCUGAGG [JL shm-2.xx] (puzzle: Sensor for hsa-mir-208a) |  |  |  | 50.2 | 36.6 | 56.7 |
| CAGUACUGUCGAGAGGAUAUGCGGUGAUGGACAUGAGGAUCACCCAUGUUAGCGACAGCAUCACGGCAGAAGGCUCUACUGCUGC [Soteed Omei mod 33] (puzzle: Same State 2) |  |  |  |  | 39.4 |  |
| AUACUCAUGUAAGGAUAUGCAGCCGAAACGGCUGCAGAAGGUACUAUAAUACAUGAGGAUCACCCAUGUCUCUAUUAUUUAGUU [Mat - Same State NG 1 - JL mod - D98] (Eterna round: R96, puzzle: Same State NG 1) | 89.5 | 46.5 | 101 |  |  |  |
| GGAGCCGGCCUAGGAUAUUUCAUUAAAUAACAUGAGGAUCACCCAUGUAGGCCAGAAGGCCUUGGGAAGAAGGAGGUCGGCUCC [Loop Effect - U24,U28] (Eterna round: R96, puzzle: Same State NG 2) | 12.2 | 35 | 46.3 |  |  |  |
| AAGCUCGUGUGAGGAUAUGCCGCCGUUUCGGCUGCAGAAGGUGCUACGUUACAUGAGGAUCACCCAUGUCUCUGUUGUUUCGUU [salish99_SSNG1_r04_951] (Eterna round: R96, puzzle: Same State NG 1) | 18.7 | 15.9 | 20.8 |  |  |  |
| UGGAUCUAGGCUUGCCUGGGUCCAUGCUGACAUGAGGAUCACCCAUGUGCAUCCUACAAGCUUUUUGCUUGUCUGCC (Eterna round: R96, puzzle: Sensor for hsa-mir-208a) | 416 | 267 | 216 |  |  |  |
| GGAGCCAAGGCAGGAUAUUCAUAUUAAAUAACAUGAGGAUCACCCAUGUAGGCCAGAAGGCCUUGGGAGAAGGGCCAUGGCUCG [Xeonanis - 13 mod21] (Eterna round: R96, puzzle: Same State NG 2) | 21.1 | 109 | 189 |  |  |  |
| AAAGAAAACGCAGGAUAUCCCGGAAUGGAAACGGGAGAAGGGUGACCGGUACAUGAGGAUCACCCAUGUAGAGCACAGGCUCAA [Sousdi] (Eterna round: R96, puzzle: Same State NG 1) | 3380 | 39.4 | 922 |  |  |  |
| AUAAUAAUAAGUGAGGAUAUGUUGAUAAAGACAUGAGGAUCACCCAUGUGAAAUAAAAUAAUAAUACAGAAGGCACAAUAAUAAA [JMF's solution 2] (puzzle: Same State 2) |  |  |  | 25.6 | 38.7 | 27.9 |
| ACUCUCACAGUAGGAUAUGUAGGAUAUGCCUACAUGAGGAUCACCCAUGUAAACAUGGCAGAAGGACAGAAGGACUUACAUUGG [pwkr ssNG2 2FMN + 1F5.2] (Eterna round: R96, puzzle: Same State NG 2) | 31.7 | 197 | 408 |  |  |  |
| GGUAGGUUACUACCAAUCACAUGAGGAUCACCCAUGUUUUGGGAGGAUAUGGUACCUAUUUGGUACCAGAAGGCCUUAUUAAUU [Fiskers NG3ss - 12] (Eterna round: R96, puzzle: Same State NG 3) | 63.6 | 36.2 | 65.3 |  |  |  |
